Experimental findings from PMC3337157 (Small GTPases, 2011) are described below.

For the test, the target named is T1, Rnd1 mutant W66L (residues 5-200) (UniProt Q92730 5-200, W66L).
T1 sequence (looked up): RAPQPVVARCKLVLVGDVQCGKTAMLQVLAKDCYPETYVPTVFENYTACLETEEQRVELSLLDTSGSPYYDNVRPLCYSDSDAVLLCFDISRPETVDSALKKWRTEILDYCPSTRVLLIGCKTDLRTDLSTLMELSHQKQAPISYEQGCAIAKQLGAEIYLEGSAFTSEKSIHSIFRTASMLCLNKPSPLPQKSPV
In words: ITC. (Isothermal titration calorimetry measures the heat released or taken up as one component is titrated into another.)

As usually defined, the Kd is the equilibrium constant for the complex coming apart. Read a low Kd as a tighter complex. Broadly, the stoichiometry N is the number of molecules, sites or subunits per partner or assembly.

B1: plexin-B1 Rho GTPase binding domain (RBD) (domain or fragment)
chain: DVEYRPLTLNALLAVGPGAGEAQGVPVKVLDCDTISQAKEKMLDQLYKGVPLTQRPDPRTLDVEWRSGVAGHLILSDEDVTSEVQGLWRRLNTLQHYKVPDGATVALVPCLTKHVLRENQ
Consider B1, for which the Ka was determined as 209000 M⁻¹, the dissociation constant Kd stood at 4.8 ± 0.5 µM, the dH was -3.9 ± 0.1 kcal/mol and the “stoichiometry N” value stood at 0.98.
